To fix the notation:
T1: Stt3 (S. cerevisiae, UniProt P39007 1-718, N-glycan at Asn539)
T1 sequence (looked up): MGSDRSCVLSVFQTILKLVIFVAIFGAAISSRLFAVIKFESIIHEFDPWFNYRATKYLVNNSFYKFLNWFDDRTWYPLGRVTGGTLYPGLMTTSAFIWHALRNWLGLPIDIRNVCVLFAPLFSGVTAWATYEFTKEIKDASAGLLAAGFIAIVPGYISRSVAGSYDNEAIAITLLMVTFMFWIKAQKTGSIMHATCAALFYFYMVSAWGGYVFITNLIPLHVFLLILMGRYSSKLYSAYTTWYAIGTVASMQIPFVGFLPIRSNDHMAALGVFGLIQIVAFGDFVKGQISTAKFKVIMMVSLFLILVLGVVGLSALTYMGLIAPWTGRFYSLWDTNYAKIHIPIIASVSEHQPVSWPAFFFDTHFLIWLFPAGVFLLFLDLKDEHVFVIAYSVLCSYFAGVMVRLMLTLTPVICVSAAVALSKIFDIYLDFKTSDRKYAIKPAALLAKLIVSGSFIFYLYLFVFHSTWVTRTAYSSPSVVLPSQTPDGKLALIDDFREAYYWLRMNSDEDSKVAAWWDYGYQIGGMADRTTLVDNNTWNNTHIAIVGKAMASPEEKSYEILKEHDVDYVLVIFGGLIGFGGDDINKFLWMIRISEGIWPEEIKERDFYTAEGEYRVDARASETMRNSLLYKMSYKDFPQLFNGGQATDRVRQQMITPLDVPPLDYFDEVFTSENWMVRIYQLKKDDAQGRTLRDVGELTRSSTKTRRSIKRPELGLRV

B1: Ost5 (natural protein, S. cerevisiae, UniProt Q92316 1-86, looked up)
chain: MTYEQLYKEFHSSKSFQPFIHLDTQPKFAICGLIVTLAVLSSALFAVGSKSSYIKKLFFYTILSVIGSLFAGLTTVFASNSFGVYV
B2: Ost1 (natural protein, S. cerevisiae, UniProt P41543 23-476, looked up)
chain: AQYEPPATWENVDYKRTIDVSNAYISETIEITIKNIASEPATEYFTAFESGIFSKVSFFSAYFTNEATFLNSQLLANSTTAPGDDGESEIRYGIIQFPNAISPQEEVSLVIKSFYNTVGIPYPEHVGMSEEQHLLWETNRLPLSAYDTKKASFTLIGSSSFEEYHPPNDESLLGKANGNSFEFGPWEDIPRFSSNETLAIVYSHNAPLNQVVNLRRDIWLSHWASTIQFEEYYELTNKAAKLSKGFSRLELMKQIQTQNMRQTHFVTVLDMLLPEGATDHYFTDLVGLVSTSHAERDHFFIRPRFPIFGGWNYNFTVGWTNKLSDFLHVSSGSDEKFVASIPILNGPPDTVYDNVELSVFLPEGAEIFDIDSPVPFTNVSIETQKSYFDLNKGHVKLTFSYRNLISQVANGQVLIKYDYPKSSFFKKPLSIACYIFTALMGVFVLKTLNMNVTN
modifications: N-glycan at Asn336
B3: Ost3 (natural protein, S. cerevisiae, UniProt P48439 23-350, looked up)
chain: MSSNRLLKLANKSPKKIIPLKDSSFENILAPPHENAYIVALFTATAPEIGCSLCLELESEYDTIVASWFDDHPDAKSSNSDTSIFFTKVNLEDPSKTIPKAFQFFQLNNVPRLFIFKPNSPSILDHSVISISTDTGSERMKQIIQAIKQFSQVNDFSLHLPMDWTPIITSTIITFITVLLFKKQSKLMFSIISSRIIWATLSTFFIICMISAYMFNQIRNTQLAGVGPKGEVMYFLPNEFQHQFAIETQVMVLIYGTLAALVVVLVKGIQFLRSHLYPETKKAYFIDAILASFCALFIYVFFAALTTVFTIKSPAYPFPLLRLSAPFK
B4: Ost2 (natural protein, S. cerevisiae, UniProt P46964 1-130, looked up)
chain: MAKAPKANTPKVTSTSSAVLTDFQETFKTSKRAYFAQIEKYPKLKLIDTFCFFLVLLGVIQCTFIILIRDNFPFNAFLAGFIICVGQFVLLMSLRLQLCNSFPGISKNRAFAEFIVASLILHFVCLHFIN
B5: Swp1 (natural protein, S. cerevisiae, UniProt Q02795 20-286, looked up)
chain: YVAQDVHVSFPSTAGKSRVMIGKVEPRIGIDETVPTTITVEDPNEVIQVNFAIESTNKPFQNTLLIGLPNKNLEMAFEPEIKDNGKLSMYKYRIDLAKLDAALLQEASRSPEPIKATLILASSTAKPKENLFREILQLNLNFDVDHSDSSLVDKFGIKPEIHHIFHAEPKRVAKPIAVIFVLIIFITILSLIVTWLNSCAAAFNNIPTGVTAVYFLGFIATIVGFEVIFARYYLGTSIFETLFSSLYLGAPGLLTSTKFLRSFGQTI
B6: Ost4-FLAG (natural protein, S. cerevisiae)
chain: MISDEQLNSLAITFGIVMMTLIVIYHAVDSTMSPKN
B7: Wbp1 (natural protein, S. cerevisiae, UniProt P33767 21-430, looked up)
chain: TQTSRTLVLYDQSTEPLEEYSVYLKDLEQRNYKLEYLDINSTSTTVDLYDKEQRLFDNIIVFPTKGGKNLARQIPVKQLIKFFENEGNILCMSSPGAVPNTIRLFLNELGIYPSPKGHVIRDYFSPSSEELVVSSNHLLNKYVYNARKSEDFVFGESSAALLENREQIVPILNAPRTSFTESKGKCNSWTSGSQGFLVVGFQNLNNARLVWIGSSDFLKNKNQDSNQEFAKELLKWTFNEKSVIKSVHAVHSHADGTSYDEEPYKIKDKVIYSVGFSEWNGEEWLPHIADDIQFELRQVDPYYRLTLSPSGNDSETQYYTTGEFILPDRHGVFTFLTDYRKIGLSFTTDKDVKAIRHLANDEYPRSWEISNSWVYISAICGVIVAWIFFVVSFVTTSSVGKKLETFKKTN
modifications: N-glycan at Asn60

What all share (assay): cryo-EM structure
In the assay “Ost1” the target is B2.
The next assay deals with T1, Stt3.
The target in the assay “Swp1” is B5.
The assay “Wbp1” has as its target B7.

We go through seven molecules from publication PMC6112861 (Nature, 2018).

As to B1, the binding result with Ost1 is “binds”.

On to B2, for which, in the assay with Stt3, the binding result is “binds”.

Consider B3, for which the binding result with Stt3 is on record as “binds”.

On to B4, for which the binding result in the assay with Swp1, with Stt3 and with Wbp1 was “binds” each time.

Consider B5, for which the binding result with Stt3 and in the assay with Wbp1 was “binds” in each case.

Turning to B6, the binding result with Stt3 is given as “binds”.

In the case of B7, the binding result in the assay with Stt3 is listed as “binds”.
